In IntAct's records for PubMed 15744310:

B1: NAD-dependent protein deacetylase sirtuin-1 (Mus musculus), Q923E4 (parent)
chain: MADEVALALQAAGSPSAAAAMEAASQPADEPLRKRPRRDGPGLGRSPGEPSAAVAPAAAGCEAASAAAPAALWREAAGAAASAEREAPATAVAGDGDNGSGLRREPRAADDFDDDEGEEEDEAAAAAAAAAIGYRDNLLLTDGLLTNGFHSCESDDDDRTSHASSSDWTPRPRIGPYTFVQQHLMIGTDPRTILKDLLPETIPPPELDDMTLWQIVINILSEPPKRKKRKDINTIEDAVKLLQECKKIIVLTGAGVSVSCGIPDFRSRDGIYARLAVDFPDLPDPQAMFDIEYFRKDPRPFFKFAKEIYPGQFQPSLCHKFIALSDKEGKLLRNYTQNIDTLEQVAGIQRILQCHGSFATASCLICKYKVDCEAVRGDIFNQVVPRCPRCPADEPLAIMKPEIVFFGENLPEQFHRAMKYDKDEVDLLIVIGSSLKVRPVALIPSSIPHEVPQILINREPLPHLHFDVELLGDCDVIINELCHRLGGEYAKLCCNPVKLSEITEKPPRPQKELVHLSELPPTPLHISEDSSSPERTVPQDSSVIATLVDQATNNNVNDLEVSESSCVEEKPQEVQTSRNVENINVENPDFKAVGSSTADKNERTSVAETVRKCWPNRLAKEQISKRLEGNQYLFVPPNRYIFHGAEVYSDSEDDVLSSSSCGSNSDSGTCQSPSLEEPLEDESEIEEFYNGLEDDTERPECAGGSGFGADGGDQEVVNEAIATRQELTDVNYPSDKS
partner: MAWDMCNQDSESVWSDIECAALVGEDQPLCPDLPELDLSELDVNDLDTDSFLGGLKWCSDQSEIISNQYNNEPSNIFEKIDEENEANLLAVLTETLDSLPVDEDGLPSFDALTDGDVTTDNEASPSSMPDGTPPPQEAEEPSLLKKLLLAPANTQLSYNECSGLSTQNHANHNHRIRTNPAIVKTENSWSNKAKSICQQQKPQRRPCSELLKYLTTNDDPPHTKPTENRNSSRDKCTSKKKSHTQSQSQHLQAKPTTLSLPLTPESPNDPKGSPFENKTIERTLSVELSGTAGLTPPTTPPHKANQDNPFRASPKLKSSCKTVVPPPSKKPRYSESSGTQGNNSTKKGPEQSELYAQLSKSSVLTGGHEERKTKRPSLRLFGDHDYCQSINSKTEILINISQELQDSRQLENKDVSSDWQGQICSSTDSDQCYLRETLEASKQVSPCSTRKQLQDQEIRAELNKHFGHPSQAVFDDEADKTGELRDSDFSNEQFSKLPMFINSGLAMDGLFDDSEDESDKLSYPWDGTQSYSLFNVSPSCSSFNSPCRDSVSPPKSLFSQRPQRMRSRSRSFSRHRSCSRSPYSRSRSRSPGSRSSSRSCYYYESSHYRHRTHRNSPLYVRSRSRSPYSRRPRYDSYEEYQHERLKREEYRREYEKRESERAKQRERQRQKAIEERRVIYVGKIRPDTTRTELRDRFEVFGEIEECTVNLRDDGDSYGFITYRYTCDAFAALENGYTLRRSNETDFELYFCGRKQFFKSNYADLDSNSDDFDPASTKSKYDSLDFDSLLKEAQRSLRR

Variants of: B1
Settings: with prgc1_human PPARGC1A

Variant	effect of a mutation on the interaction
H355A	decreasing interaction
